In paper PMC4110032, “Crystal Structure of the Stress-Inducible Human Heat Shock Protein 70 Substrate-Binding Domain in Complex with Peptide Substrate” (PLoS ONE, 2014):

Biological target: T1, human HSP70 substrate-binding domain (residues 386–616) (human, UniProt P0DMV8 386-616)
T1 construct: Cloned into pET25 between NdeI and XhoI; The His6 tag was retained for crystallisation; A selenomethionine-derivatised form was used for phasing; also called HSP70-SBD; HSP70 SBD; source: E. coli BL21 Star (DE3), purified (Ni-NTA; size-exclusion chromatography when necessary); not shown: His6, N-terminal, kept
Experiment: crystal structure; co-crystallised by hanging drop vapour diffusion; 5 mM NRLLLTG mixed with 400 µM HSP70 (386–616), preheated to 42°C for 15 min and cooled to room temperature; 0.1 M Bis-Tris pH 5.5, 0.2 M Li2SO4, PEG3350; 2 Å, space group C2, two complexes per asymmetric unit
Details: both partners purified

T1 sequence (P0DMV8 386-616): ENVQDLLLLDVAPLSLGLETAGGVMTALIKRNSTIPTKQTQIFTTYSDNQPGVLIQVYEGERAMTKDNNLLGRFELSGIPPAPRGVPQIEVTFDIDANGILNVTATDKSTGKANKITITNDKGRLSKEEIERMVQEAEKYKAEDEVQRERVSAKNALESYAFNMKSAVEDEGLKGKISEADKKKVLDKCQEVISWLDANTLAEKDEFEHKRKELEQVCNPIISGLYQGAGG

B1: NRLLLTG peptide (peptide)
peptide: NRLLLTG
notes: hepta-peptide model substrate used in earlier DnaK structural analyses; Residues of the peptide are numbered 1-7 with the suffix p (Leu5p); also called hepta-peptide model substrate; NRLLLTG substrate peptide; source: bought: Biomatik
  binding result: binds
